According to publication PMC3964601 (Biochemistry, 2012):
Like-named read-outs stand apart in the source and are kept apart here. Values belong to the binder of their own block, whether it stands above or below them.

B1: Pyrococcus furiosus RNase P protein RPP21 (natural protein)
chain: MAKYNEKKEKKRIAKERIDILFSLAERVFPYSPELAKRYVELALLVQQKAKVKIPRKWKRRYCKKCHAFLVPGINARVRLRQKRMPHIVVKCLECGHIMRYPYIKEIKKRRKEKMEY
B3: Pyrococcus furiosus RNase P protein RPP29 (natural protein)
chain: MWRNSEERENRTSGRSQGSYQEIIGRTWIFRGAHRGRVNKKNIVWHELIGLKVRVVNSTHPGYVGIEGYVIDETRNMLVIAGENKVWKVPKDVCIFEFETWDGTKIKISGEKLVGRPEMRLKKRWRK

Tests used:
Assay in all cases: ITC
[1] = target: B3
[2] = target: B3; remark: listed apart in the source
[3] = target: B3; remark: listed apart in the source
[4] = target: B3; remark: listed apart in the source
[5] = target: B3; remark: listed apart in the source
[6] = target: B3; remark: listed apart in the source
[7] = target: B3; remark: listed apart in the source
[8] = target: B3; remark: listed apart in the source
[9] = target: B3; remark: listed apart in the source
[10] = target: B1
[11] = target: B1; remark: listed apart in the source
[12] = target: B1; remark: listed apart in the source
[13] = target: B1; remark: listed apart in the source
[14] = target: B1; remark: listed apart in the source
[15] = target: B1; remark: listed apart in the source
[16] = target: B1; remark: listed apart in the source
[17] = target: B1; remark: listed apart in the source
[18] = target: B1; remark: listed apart in the source
[19] = target: B1; remark: listed apart in the source
[20] = target: B1; remark: listed apart in the source

Binder: B1
Ka [1]: 1.09e+07 M⁻¹ | Ka [2]: 2.01e+07 M⁻¹ | Ka [3]: 1.71e+07 M⁻¹ | Ka [4]: 1.07e+07 M⁻¹ | Ka [5]: 9.55e+06 M⁻¹ | Ka [6]: 3.32e+07 M⁻¹ | Ka [7]: 9.17e+06 M⁻¹ | Ka [8]: 2.04e+06 M⁻¹

binding result [9]: binds
B2: Pyrococcus furiosus RPP21/A14V (natural protein)
chain: MAKYNEKKEKKRIVKERIDILFSLAERVFPYSPELAKRYVELALLVQQKAKVKIPRKWKRRYCKKCHAFLVPGINARVRLRQKRMPHIVVKCLECGHIMRYPYIKEIKKRRKEKMEY

Binder: B3
dH [10]: -43 kcal/mol | dH [11]: -37.6 kcal/mol | dH [12]: -34.3 kcal/mol | dH [13]: 11.6 kcal/mol | stoichiometry N [13]: 1.01 RPP29 per RPP21 | dH [14]: -10.2 kcal/mol | stoichiometry N [14]: 0.998 RPP29 per RPP21 | dH [15]: -15.8 kcal/mol | stoichiometry N [15]: 1.03 RPP29 per RPP21 | dH [16]: -23.5 kcal/mol | stoichiometry N [16]: 1 RPP29 per RPP21 | dH [17]: 5.95 kcal/mol | stoichiometry N [17]: 0.9 RPP29 per RPP21 | dH [18]: -5.19 kcal/mol | stoichiometry N [18]: 0.986 RPP29 per RPP21 | dH [19]: 17.1 kcal/mol | stoichiometry N [19]: 0.956 RPP29 per RPP21 | dH [20]: -32 kcal/mol | stoichiometry N [20]: 0.97 RPP29 per RPP21
